B1: G-3-P-Dehydrogenase from bacillus subtilis: glyceraldehyde-3-phosphate dehydrogenase (G3PD) enzyme from bacillus subtilis (protein)
chain: AVKVGINGFGRIGRNVFRAALNNPEVEVVAVNDLTDANMLAHLLQYDSVHGKLDAEVSVDGNNLVVNGKTIEVSAERDPAKLSWGKQGVEIVVESTGFFTKRADAAKHLEAGAKKVIISAPANEEDITIVMGVNEDKYDAANHDVISNASCTTNCLAPFAKVLNDKFGIKRGMMTTVHSYTNDQQILDLPHKDYRRARAAAENIIPTSTGAAKAVSLVLPELKGKLNGGAMRVPTPNVSLVDLVAELNQEVTAEEVNAALKEAAEGDLKGILGYSEEPLVSGDYNGNKNSSTIDALSTMVMEGSMVKVISWYDNESGYSNRVVDLAAYIAKKGL
B2: Enolase from Rabbit: commercially available rabbit protein enolase (protein)
chain: AMQKIFAREILDSRGNPTVEVDLHTAKGRFRAAVPSGASTGIYEALELRDGDKSRYLGKGVLKAVEHINKTLGPALLEKKLSVVDQEKVDKFMIELDGTENKSKFGANAILGVSLAVCKAGAAEKGVPLYRHIADLAGNHDLVLPVPAFNVINGGSHAGNKLAMQEFMILPVGASSFREAMRIGAEVYHHLKGVIKAKYGKDATNVGDEGGFAPNILENNEALELLKTAIQAAGYPDKVVIGMDVAASEFHRNGKYDLDFKSPDDPARHITGQKLGELYKSFIKNYPVVSIEDPFDQDDWATWTSFLSGVDIQIVGDDLTVTNPKRIAQAVEKKACNCLLLKVNQIGSVTESIQACKLAQSNGWGVMVSHRSGETEDTFIADLVVGLCTGQIKTGAPCRSERLAKYNQLMRIEEALGDKAVFAGRKFRNPKAK

Key:
[1] = tested on: SDAs (schizophrenic derived antibodies); assay: Reactivity of proteins to SDAs (platelet autoantibodies from schizophrenic patients), blot with anti-human Fc-HRP; type: binding; details: number of SDA samples that reacted positively with the enzyme, of 8 patients
Protocol: (§1) 1. Platelets and Anti-Platelet Autoantibodies Venous blood (20 ml) was drawn with heparin as anticoagulant from patients and control subjects. Platelet rich plasma (PRP) was obtained by centrifugation (100 g for 20 mins) at room temperature. Plasma free platelets were obtained by washing them three times with phosphate buffered saline (PBS) supplemented with 10 ml mM EDTA as anticoagulant (4000 g; 15 mins; 4° C.). For the isolation of anti-platelet antibodies, the platelets were incubated with 0.1 M glycine/10 mM EDTA, pH 2.8, for 10 min. at room temperature and then centrifuged (4000 g; 15 min; 4° C.). The supernatant containing the anti-platelet antibodies, was neutralized with saturated Na2PO4 solution and stored at −20 until use. 2. Preparative Isoelectric Focusing
(§2) The fractions were analyzed for immuno-reactivity by polyacrylamide (10%) gel electrophoresis, blotting the proteins onto PVDF membranes and probing the membrane with 1 ml auto-antibodies in 50 ml incubation buffer. Anti-human Fc conjugated to horseradish peroxidase (goat) from SIGMA (1:500 dilution) and Fast-DAB™ (SIGMA) or 4-Chloro-naphthol (SIGMA) were used as color reagent in order to detect bound human anti-platelet antibodies.
(§3) Every fifth fraction (0.1 ml) was dot blotted onto PVDF membranes using the DotBlot device (96 wells) from BioRad. Immuno-reactive fractions were then detected as described above (1.3) […]

[2] = tested on: NSDAs (non-schizophrenic derived antibodies); assay: Reactivity of proteins to NSDAs (platelet autoantibodies from control non-schizophrenic individuals), blot with anti-human Fc-HRP; type: binding; details: number of NSDA samples that reacted positively with the enzyme, of 8 controls
Protocol: as §1, §2, §3

| Molecule | Patients (n = 8) Positive [1] | Controls (n = 8) Positive [2] |
| --- | --- | --- |
| B1 | 1/8 | 2/8 |
| B2 | 7/8 | 1/8 |

From patent US7098304B1, “Assay for the diagnosis of schizophrenia based on a new peptide” (Yeda Research and Development Co. Ltd., priority 1998, dated 2006)
